Blank lines part the entries; values can stand above or below the binder they belong to.
Molecular target: T1, human transferrin (human, UniProt P02787 20-698)
T1 construct: mature; also called hTf; native human transferrin
Assay: ELISA, biotinylated human transferrin on streptavidin plate, anti-hARSA detection
Method: A 96-well plate was coated with streptavidin (0.1 μg/mL, 100 μL/well) and incubated overnight at 4° C.; after washing the plate three times with buffer PBST, the 96-well plate was blocked with 200 μL of PBST containing 1% bovine serum albumin (BSA) for 1 hour at room temperature. The plate was then washed three times with PBST, added with biotinylated human transferrin (1 μg/mL, 100 μL/well) and incubated at room temperature for 1 hour. […] The plate was then washed three times with PBST, added with goat anti-hARSA antibody (R&D, AF2485) (100 μL/well) at a concentration of 0.125 ug/mL to each well and incubated at room temperature for 1 hour. The plate was then washed three times with PBST, added with 100 μL anti-goat IgG-HRP to each well and incubated at room temperature for 0.5 hour, followed by the same washing steps aforementioned. The plate was then added with 100 μL/well of TMB substrate solution and incubated at room temperature for 15 minutes. The reaction was then stopped by adding 100 μL/well of the stop solution, and the absorbance was read at 450 nm using an ELISA reader.

T1 sequence (P02787 20-698): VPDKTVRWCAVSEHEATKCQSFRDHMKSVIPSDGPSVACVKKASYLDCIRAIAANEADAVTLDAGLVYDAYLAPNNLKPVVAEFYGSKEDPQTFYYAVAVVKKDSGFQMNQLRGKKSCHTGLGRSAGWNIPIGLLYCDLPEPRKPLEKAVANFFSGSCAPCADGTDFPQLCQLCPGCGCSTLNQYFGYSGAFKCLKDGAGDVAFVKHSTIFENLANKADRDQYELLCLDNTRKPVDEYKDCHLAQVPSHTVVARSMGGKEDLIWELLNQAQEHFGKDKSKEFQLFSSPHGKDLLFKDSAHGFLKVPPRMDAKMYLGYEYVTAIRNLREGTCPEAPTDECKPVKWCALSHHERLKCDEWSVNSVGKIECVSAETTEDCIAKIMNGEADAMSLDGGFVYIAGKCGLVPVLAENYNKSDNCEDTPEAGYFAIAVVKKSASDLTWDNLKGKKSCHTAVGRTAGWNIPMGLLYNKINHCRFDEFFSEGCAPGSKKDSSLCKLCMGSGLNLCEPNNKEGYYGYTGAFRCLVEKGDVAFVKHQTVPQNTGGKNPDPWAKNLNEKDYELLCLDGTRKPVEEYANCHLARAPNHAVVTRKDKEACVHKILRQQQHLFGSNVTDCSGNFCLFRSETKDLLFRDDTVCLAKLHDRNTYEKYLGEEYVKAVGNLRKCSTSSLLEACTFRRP

- binding result: no binding
B1: hARSA (enzyme)
chain: RPPNIVLIFADDLGYGDLGCYGHPSSTTPNLDQLAAGGLRFTDFYVPVSLCTPSRAALLTGRLPVRMGMYPGVLVPSSRGGLPLEEVTVAEVLAARGYLTGMAGKWHLGVGPEGAFLPPHQGFHRFLGIPYSHDQGPCQNLTCFPPATPCDGGCDQGLVPIPLLANLSVEAQPPWLPGLEARYMAFAHDLMADAQRQDRPFFLYYASHHTHYPQFSGQSFAERSGRGPFGDSLMELDAAVGTLMTAIGDLGLLEETLVIFTADNGPETMRMSRGGCSGLLRCGKGTTYEGGVREPALAFWPGHIAPGVTHELASSLDLLPTLAALAGAPLPNVTLDGFDLSPLLLGTGKSPRQSLFFYPSYPDEVRGVFAVRTGKYKAHFFTQGSAHSDTTADPACHASSSLTAHEPPLLYDLSKDPGENYNLLGGVAGATPEVLQALKQLQLLKAQLDAAVTFGPSQVARGEDPALQICCHPGCTPRPACCHCPDPHA
notes: Control enzyme without the VHH; also called rhARSA; hARSA-his

- binding result: binds
B2: hARSA-9056VHH-his (other)
chain: RPPNIVLIFADDLGYGDLGCYGHPSSTTPNLDQLAAGGLRFTDFYVPVSLCTPSRAALLTGRLPVRMGMYPGVLVPSSRGGLPLEEVTVAEVLAARGYLTGMAGKWHLGVGPEGAFLPPHQGFHRFLGIPYSHDQGPCQNLTCFPPATPCDGGCDQGLVPIPLLANLSVEAQPPWLPGLEARYMAFAHDLMADAQRQDRPFFLYYASHHTHYPQFSGQSFAERSGRGPFGDSLMELDAAVGTLMTAIGDLGLLEETLVIFTADNGPETMRMSRGGCSGLLRCGKGTTYEGGVREPALAFWPGHIAPGVTHELASSLDLLPTLAALAGAPLPNVTLDGFDLSPLLLGTGKSPRQSLFFYPSYPDEVRGVFAVRTGKYKAHFFTQGSAHSDTTADPACHASSSLTAHEPPLLYDLSKDPGENYNLLGGVAGATPEVLQALKQLQLLKAQLDAAVTFGPSQVARGEDPALQICCHPGCTPRPACCHCPDPHAGGGGSGGGGSGGGGSEVQLVESGGGLVQPGGSLRLSCAASGHAYGGNYMGWFRQAPGKGLEGVAVLYTGGGSTYYADSVKGRFTISEDNSKNTVYLQMNSLRAEDTAVYYCALALGSARWYTSSLDARAYNIWGQGTLVTVSSGGGGSHHHHHH
notes: Expressed in HEK293F cells

Source: patent publication US20240101981A1 (LINNO PHARMACEUTICALS, published 2024)
